Here are results for 20 sequences from the DeepSol protein solubility set.

A short description of the series: soluble on expression in E. coli; label from the status in PepcDB or PDB records.
With “MKEQKISPISVLDQSPMFVSGVMQRMYRNRAQAELCRQNQMTLEMASALAALEEFQPMSQQALADAVLTERSVAKRMVDNLEKRGFVCVSKSEANQRLKMLSLTKEGEATIKKVHQIMRNLQREFFSCLSEDESAEFFRLVRKMTLANNS”, the “soluble on expression in E. coli” value is given as “not soluble”.

For “MKEVPMILEICVDDVAGLEAAVRGGADRIELCAALSGGGVTPSAGFMQRAATYGLPVSVMIRPRAGDFVFTHDEADVMKRDIDAARAAGLSGVVLGASRGDGSLDMALLEDLRRHADGMDATLHRAFDVAPDMEEALEAAISLGFPRILTSGGARSALEGVKTLARLSELAKGRIVIMPGAGVRPQSVQALLDSFPITEIHASCSAVPLYDPESRVAKLGFTGAGRKATDEAAVRELKTILSAHHKGGATLLEHHHHHH”, the “soluble on expression in E. coli” value is “soluble”.

With “MKFAFIAKHRSIWPVAWLCEALGVSRSGFHAWFNRSPSEHARHDEVLLERIKQSFQSSDRTYGARRVWHDVLEEGLSCGLHRIERLMRLNALRARPRRRGFPKDAGDRPVVMPNVLDRQFVADRPNQKWVADFTYIWTAEGWLYVAAVIDLFSRRVVGWSMNANMTAQLVTDALIMAIWRRGKPDALLHHSDQGSQYTSEQFQRLMGDHGITCSMSRSGNVWDNAAMESFFSSLKTERTARKVYRTRNDARADVFDYIERFYNPKRRHSTLGYLSPDDFETKVGLA”, the “soluble on expression in E. coli” value is listed as “soluble”.

As to “MKFTPPPASLRNPLIIPEKIMMGPGPSNCSKRVLTAMTNTVLSNFHAELFRTMDEVKDGLRYIFQTENRATMCVSGSAHAGMEAMLSNLLEEGDRVLIAVNGIWAERAVEMSERYGADVRTIEGPPDRPFSLETLARAIELHQPKCLFLTHGDSSSGLLQPLEGVGQICHQHDCLLIVDAVASLCGVPFYMDKWEIDAVYTGAQKVLGAPPGITPISISPKALDVIRNRRTKSKVFYWDLLLLGNYWGCYDEPKRYHHTVASNLIFALREALAQIAEEGLENQIKRRIECAQILYEGLGKMGLDIFVKDPRHRLPTVTGIMIPKGVDWWKVSQYAMNNFSLEVQGGLGPTFGKAWRVGIMGECSTVQKIQFYLYGFKESLKATHPDYIFEESNGFH”, the “soluble on expression in E. coli” value is “soluble”.

“MKGFQFKVIQEKLQGRQFINSDKIKPDHPQTIIKKTLLKEYQSKNFSCQEERDLFLEFTEKIVQNFHNINFNYLLKKFCKLPENYQSLKSQVKQIVQSENKANQQSCENLFNSLYDTEISYKQITNFLRQIIQNCVPNQLLGKKNFKVFLEKLYEFVQMKRFENQKVLDYICFMDVFDVEWFVDLKNQKFTQKRKYISDKRKILGDLIVFIINKIVIPVLRYNFYITEKHKEGSQIFYYRKPIWKLVSKLTIVKLEEENLEKVEEKL”: the “soluble on expression in E. coli” value is on record as “soluble”.

Turning to “MKGLFLIFHGFEAFNGISKKIRYQVKALKECGLEMHTCWLDDTDNHKRRMVDESIIADYGFGIKGKILKRIEFDSIVHYVQKENIDFIYVRYVHNASPFSIRLMKLLKKTGARIVMEIPTYPYDQEYKGLPFVYQRILFIDKCFRQHLARYVDKIVTFSDYDIIWNRPTIRISNGIDFSEIPLRGPKNDTAHSLQLIAVATMHPWHGFDRVIAGMANYYRTHTDTHDYKVYLNIVGFGVPELVDSYKKDVAKHQLEKYIIFHSALYGKELDAVFEQSDMGIGSLARHRSGIDKIKTLKNREYAARGIPFVYSETDDDFEHQPYILKAAPDDSPLDIEKVIRFYQSLKTTPLQIRMSIEQSLSWKAQMQIVINETFE”, the “soluble on expression in E. coli” value is on record as “not soluble”.

In the case of “MKGMFTPGNGPVQISAEAIKKRVEELGGEIARDYQGKTPHLICVLNGAFIFMADLVRAIPLPLTMDFIAISSYGNAFKSSGEVELLKDLRLPIHGRDVIVVEDIVDTGLTLSYLLDYLEARKPASVRVAALLSKPSRRQVEVPIHYLGFEIEDAYVYGYGLDRAQFDRNLPFITSIRPEEE”, the “soluble on expression in E. coli” value was “soluble”.

As to “MKHGILVAYKPKGPTSHDVVDEVRKKLKTRKVGHGGTLDPFACGVLIIGVNQGTRILEFYKDLKKVFWVKMRLGLITETFDITGEVVEERECNVTEEEIREAIFSFVGEYDQVPPAYSAKKYKGERLYKLAREGKIINLPPKRVKIFKIWDVNIEGRDVSFRVEVSPGTYIRSLCMDIGYKLGCGATAVELVRESVGPHTIEESLNVFEAAPEEIENRIIPLEKCLEWLPRVVVHQESTKMILNGSQIHLEMLKEWDGFKKGEVVRVFNEEGRLLALAEAERNSSFLETLRKHERQERVLTLRKVFQTR”, the “soluble on expression in E. coli” value is reported as “soluble”.

On to “MKHHHHHHPMGHMQTLIFLDLEATGLPSSRPEVTELCLLAVHRRALENTSISQGHPPPVPRPPRVVDKLSLCIAPGKACSPGASEITGLSKAELEVQGRQRFDDNLAILLRAFLQRQPQPCCLVAHNGDRYDFPLLQTELARLSTPSPLDGTFCVDSIAALKALEQASSPSGNGSRKSYSLGSIYTRLYWQAPTDSHTAEGDVLTLLSICQWKPQALLQWVDEHARPFSTVKPMYGTPATTGTTNLR”, for which the “soluble on expression in E. coli” value is “soluble”.

In the case of “MKHMPRKMYSCAFETTTKVEDCRVWAYGYMNIEDHSEYKIGNSLDEFMAWVLKVQADLYFHNLKFAGAFIINWLERNGFKWSADGLPNTYNTIISRMGQWYMIDICLGYKGKRKIHTVIYDSLKKLPFPVKKIAKDFKLTVLKGDIDYHKERPVGYKITPEEYAYIKNDIQIIAEALLIQFKQGLDRMTAGSDSLKGFKDIITTKKFKKVFPTLSLGLDKEVRYAYRGGFTWLNDRFKEKEIGEGMVFDVNSLYPAQMYSRLLPYGEPIVFEGKYVWDEDYPLHIQHIRCEFELKEGYIPTIQIKRSRFYKGNEYLKSSGGEIADLWLSNVDLELMKEHYDLYNVEYISGLKFKATTGLFKDFIDKWTYIKTTSEGAIKQLAKLMLNSLYGKFASNPDVTGKVPYLKENGALGFRLGEEETKDPVYTPMGVFITAWARYTTITAAQACYDRIIYCDTDSIHLTGTEIPDVIKDIVDPKKLGYWAHESTFKRAKYLRQKTYIQDIYMKEVDGKLVEGSPDDYTDIKFSVKCAGMTDKIKKEVTFENFKVGFSRKMKPKPVQVPGGVVLVDDTFTIK”, the “soluble on expression in E. coli” value was “soluble”.

Consider “MKIAGFDIGGANTDMAIIDFGSDGDMKEVRVDFRYLPMWLRKDELAETLLEMVGDDLHELEGVGVCMTAELVDAYPSKAAGVADIIDRVEGAFDVPVAYVSLSGMVDASEALADPMNIAAANWVATSQIASAMSSDCIMVDVGSTTTDIIPVKDGFEAARGRNDLERLSTGELVYTGTLRTNVATIVDRVPLQDKWFRVSSELFAVTADVHRVLGNIGESDYTCSTPDGAGKSVEECMLRIARVLCADLELLSPGDVLDVAEYIYHQQILKIAEGIAEVSEREGLEEVVTTGLGMKILAQRAAEVLELECRTMDEFLTEEECVVAPAVGTALLMEDYLQAQGLLEHHHHHH”, for which the “soluble on expression in E. coli” value was “not soluble”.

For “MKIAIASGKGGTGKTTVAVNLALALEEVQLFDCDVEEPNCNLFLGFEMEPVEEVVFLVPEINPDKCTLCRGCSDFCRYNALAAIPNRILSFPSLCHGCGGCSFVCPAGAIEEKPETIGIIQKALSDSPLTFFCGTLKIGKATATPVIKSLQNHIDESRPAIIDSPPGTACPVLAVMGFADYCVLVTESTPFGFHDFCLALEAARALNVPVGVVLNRDGLGDSRVEDFCRAEGIPILLRIPNDRTIARLYSEGIPFVKEMPEWKKQFKDMFETIKTGLYESKGVQLEHHHHHH”, the “soluble on expression in E. coli” value is recorded as “not soluble”.

Turning to “MKIAIIGAGIGGLTAGALLLEKGHDVSIFERQSNISEVGAGIGIGDNVIKKLGKHDLAKGIKNAGQNLSAMNVLDDKGNILSAVKLKEATLNVTLARQTLIELIQSYVNPQCIYTDHDVIKVENVEQHTMVHFSNHASQSFDLCIGSDGLHSVVRQAIHQNAKILYQGYTCFRGLVDDADLHNIDIASEYWGKRGRVGIVPLINNQAYWFITINASEKDPKYQTFEKPHLQAYFNNYPEPVRQILDKQSETGIQKHDLYDMKPLKSFVNQRILLLGDAAHATTPNMGQGAGQAMEDAIVLVNCLAEYDIEKALKRYDKLRVKHTAKVIKRSRKIGKIAQKDNKLVISLRNGVMKRTPNRLLSGQTKFLYKAKHKLEHHHHHH”, the “soluble on expression in E. coli” value was “not soluble”.

Turning to “MKIEKFKVLLYLKKSRPDKSGKAPIMGRITVNRSMVQFSCKLSCTPDLWNPRESRLNGKSNEAVEVNAKLDKLLLSIHAAFDTLVERKADFDAEAVKNLFQGSLETQMTLLAMTDIVCEELRKRIGIDRAKGTYPAYFYTRRTLAEFIQKKFHSKDIAFGQLTEQFIHDYQFFVVDDKGLTIETSRHYLAIIKKVCRKAYKEGYADKCFFAHFSLPKQEEKTPKALSRESFEKIRDLVIPEHRSSHILARDLFLFACYTGTSYADAVSVTRDNLFTDDEGSLWLKYRRKKNELQACVKLLPEALELIEKYNDDTRPTLFPMLYHPNLRRLMKCLAVLADIKEDLTYHAGRHSFASLITLEAGVPIETICKMLGHSNLQTTQRYAKVTPKKLFEDMDKYIEATKDLKLIL”, the “soluble on expression in E. coli” value is listed as “not soluble”.

Take “MKIFTVCQSGLGTSFMVQMNIQQILEEVGVDTDNFQIDHTDVGSASGDMADYFFVEKTLQDALGSIPAEKIIPLNAIIDYDETKEKVLKVLDDNGIAHQ”: the “soluble on expression in E. coli” value is “not soluble”.

In the case of “MKIGIIGATGRAGSRILEEAKNRGHEVTAIVRNAGKITQTHKDINILQKDIFDLTLSDLSDQNVVVDAYGISPDEAEKHVTSLDHLISVLNGTVSPRLLVVGGAASLQIDEDGNTLLESKGLREAPYYPTARAQAKQLEHLKSHQAEFSWTYISPSAMFEPGERTGDYQIGKDHLLFGSDGNSFISMEDYAIAVLDEIERPNHLNEHFTVAGKLEHHHHHH”, the “soluble on expression in E. coli” value was “soluble”.

Regarding “MKIGILTQPLSNNYGGILQALALQTVLRSMGHETVILSREYDYPPFRLCLMRILSVLKCIVRKYILRDNRAIIANPFLHFYATDKTQVYDDNEIQAFIRKNLKCSVRLQSTWILKIYVRLHHFDAFLVGSDQVWRESFSPCITNFFLDFLSQKCRAKRIAYGASFGVEQNPISVASLNQCVELAKRFDAISVREQSGVKIMKETFHLSACQVLDPTLLLPVDFYRSFMQKSDMDSSGLVSYLLDGNEEKRNIIAVAREQLQLSQTELLLFPSRYKDEVPRFSSVSSWLSAFANADFVVTDSFHGCVFSIIFRKPFVVISNSGRGNERFFSLLDTFGLNDRLVFSYEEFVDKEEILLIEQDYTEVERKYENLKVKSLEFLFQALNEN”, the “soluble on expression in E. coli” value is “not soluble”.

For “MKIGYLGPKATFTEAAAALLFPSQPREPYDTIPDCIDAAAAGEIEAAVVPLENALEGSVNLTLDYLIHEQPLPIIGEIVVPIEQHLMVHPYFTPHWREVKEVYSHSHAIAQCRKFLHTVLKGAKQVPMTSTSAAAKFVSEHPHLPAAAIANRLAAEKYGLVIVQENVHDYDYNHTRFIVVSRRKEPLSPASPLYAGDKTTVVVMLPQDRPGALHQVLSAFAWRRLNLTKIESRPAKTGLGNYFFIIDIDAPMDDVLIPGAIAEIEALGCTVQLLGSYPYYFA”, the “soluble on expression in E. coli” value was “not soluble”.

As to “MKIIDFRLRPPAMGFLNARIYTRPDIRNRFTRQLGFEPAPSAEEKSLELMFEEMAAAGIEQGVCVGRNSSVLGSVSNADVAAVAKAYPDKFHPVGSIEAATRKEAMAQMQEILDLGIRIVNLEPGVWATPMHVDDRRLYPLYAFCEDNGIPVIMMTGGNAGPDITYTNPEHIDRVLGDFPDLTVVSSHGNWPWVQEIIHVAFRRPNLYLSPDMYLYNLPGHADFIQAANSFLADRMLFGTAYPMCPLKEYTEWFLTLPIKPDAMEKILHGNAERLLAQAGRLEHHHHHH”, the “soluble on expression in E. coli” value is reported as “not soluble”.

For “MKIISAEQVHQNLNFEELIPLLKQSFSRPFSMPQRQVYSLAPEQSENHDAFALLPSWNEEVIGNKAFTYFPDNAKKHDLPGLFSKIMLFKRQTGEPLALVDGTSVTYWRTAAISALASQLLSRKNSQHLMLFGTGNLASYLVKAHLTVRDIKQVTLWGRNAKKVSKLIADFSILYPAVTFKTSVDVNAEVASADIICCATGAKTPLFDGNSVSAGCHIDCLGNHMTDARECDTTTILRARVFVDSLTNTLNEAGELLIPMAEDAFNKDEIVGELADMCKTPSMLRQSSDEITLFKSVGTAISDLVAAHSVVEKLAD”, the “soluble on expression in E. coli” value is “not soluble”.
